Patent US20240173425A1 (Eli Lilly, published 2024)

B1: anti-human CD33 antibody Ab2 (antibody, human IgG1, kappa, L234A L235A, V domains shown)
VH: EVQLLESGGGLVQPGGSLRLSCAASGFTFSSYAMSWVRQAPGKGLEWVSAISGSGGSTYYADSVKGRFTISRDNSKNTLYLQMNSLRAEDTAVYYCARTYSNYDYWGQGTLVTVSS
VL: DIQMTQSPSSLSASVGDRVTITCQASQPTFNYLNWYQQKPGKAPKLLIYDASNLQTGVPSRFSGSGSGTDFTFTISSLQPEDIATYYCQQYEDLPTFGPGTKVDIKR
notes: Fully human IgG1AAA with S124C and A378C (EU numbering); also called anti-human CD33 Ab2
B2: anti-human CD33 antibody Ab1 (antibody, human IgG1, kappa, L234A L235A, V domains shown)
VH: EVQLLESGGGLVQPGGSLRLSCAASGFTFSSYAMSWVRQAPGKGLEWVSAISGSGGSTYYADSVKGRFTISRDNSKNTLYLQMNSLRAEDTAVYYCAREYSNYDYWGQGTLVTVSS
VL: DIQMTQSPSSLSASVGDRVTITCQASQDVFRYLNWYQQKPGKAPKLLIYDASNLQTGVPSRFSGSGSGTDFTFTISSLQPEDIATYYCQQYEDLPTFGPGTKVDIKR
notes: Fully human IgG1 with L234A, L235A, P329A (IgG1AAA, effector null) and engineered cysteines S124C and A378C (EU numbering), all already in the HC entry
B3: anti-human CD33 antibody Ab3 (antibody, human IgG1, kappa, L234A L235A, V domains shown)
VH: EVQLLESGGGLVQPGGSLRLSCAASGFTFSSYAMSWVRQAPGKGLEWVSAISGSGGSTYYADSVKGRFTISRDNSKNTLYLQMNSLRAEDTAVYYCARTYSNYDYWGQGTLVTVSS
VL: DIQMTQSPSSLSASVGDRVTITCQASQPTYIYLNWYQQKPGKAPKLLIYDASNLQTGVPSRFSGSGSGTDFTFTISSLQPEDIATYYCQQYEDLPTFGPGTKVDIKR
notes: Fully human IgG1AAA with S124C and A378C (EU numbering)
B4: anti-human CD33 Ab2 GC conjugate of Example 1b (antibody, human IgG1, kappa, L234A L235A, V domains shown)
VH: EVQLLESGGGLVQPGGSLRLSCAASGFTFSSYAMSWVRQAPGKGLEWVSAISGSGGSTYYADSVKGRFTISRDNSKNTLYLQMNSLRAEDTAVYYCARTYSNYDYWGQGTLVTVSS
VL: DIQMTQSPSSLSASVGDRVTITCQASQPTFNYLNWYQQKPGKAPKLLIYDASNLQTGVPSRFSGSGSGTDFTFTISSLQPEDIATYYCQQYEDLPTFGPGTKVDIKR
modifications: glucocorticoid receptor agonist payload-linker GC-L (Preparation 8, maleimide) conjugated to the engineered cysteines at positions 124 and 378 (EU numbering) of the heavy chain; n is 4 (average DAR 3.92 to 3.97)

What was measured:
[1] = target: T1, human CD33 ECD 18-232-His (human, UniProt P20138 18-232); assay: SPR, Biacore 8K, antibody captured on Protein A chip, CD33 ECD-His as analyte, 37 C, 1:1 model
T1 construct: Printed as 'CD33 ECD 18-232-His'; also called human CD33 extra-cellular domain; not shown: His tag
T1 sequence (P20138 18-232): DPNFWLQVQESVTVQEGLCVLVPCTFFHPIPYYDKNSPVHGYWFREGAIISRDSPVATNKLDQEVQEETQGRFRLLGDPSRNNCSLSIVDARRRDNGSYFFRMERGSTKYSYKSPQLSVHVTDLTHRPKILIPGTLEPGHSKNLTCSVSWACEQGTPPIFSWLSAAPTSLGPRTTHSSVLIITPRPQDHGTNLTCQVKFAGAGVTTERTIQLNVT
Protocol: (§1) The affinity and binding kinetics of the exemplified anti-human CD33 antibodies to human and cynomolgus monkey CD33 ECD 18-232-His proteins was determined by surface plasmon resonance using Biacore 8K (GE Healthcare). Briefly, per the Instrument Handbook the antibody was captured on a Biacore Protein A chip followed by flowing CD33 ECD from 200 nM down to 0.782 nM in 2-fold serial dilution in PBS-P20-BSA (0.005% surfactant P20, 0.1 mg/mL BSA). All measurements were carried out at 37° C. Multi-cycle kinetics setting that ran each analyte concentration in a separate cycle regenerating the surface after each sample injection was used. The regeneration was optimized to maintain consistent surface properties from cycle to cycle. Each cycle started with a 3 minute injection of 0.1 μg/mL of the antibody at 10 μl/min flow rate, followed by 3 min injection of antigen at 50 μl/min flow rate and a 15 min dissociation phase in PBS-P20-BSA. The chip surface was then regenerated with 30 seconds injection of pH 1.5, 10 mM glycine buffer at 50 μl/min flow rate three times. The data was fit to a 1:1 binding model to derive kₐ and kd, and to calculate KD.

[2] = target: T2, cynomolgus monkey CD33 ECD 18-232-His (cynomolgus monkey); assay: as above
T2 construct: also called cynomolgus monkey CD33 extra-cellular domain; not shown: His tag
T2 sequence (chain, as listed by the source): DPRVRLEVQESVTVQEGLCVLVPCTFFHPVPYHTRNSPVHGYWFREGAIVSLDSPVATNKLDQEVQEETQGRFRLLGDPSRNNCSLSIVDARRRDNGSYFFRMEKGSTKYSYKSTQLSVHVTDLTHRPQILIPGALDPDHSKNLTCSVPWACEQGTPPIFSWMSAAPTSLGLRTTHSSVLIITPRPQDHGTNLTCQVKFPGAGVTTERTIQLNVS
Protocol: as §1

[3] = target: T3, human CD33 on the cell surface of human monocytes / myeloid cells (human, UniProt P20138 18-364); assay: FACS on human monocytes (gated from human PBMC), Alexa Fluor 647-labelled antibody, 4-fold dilutions, 30 min at 4 C, mean fluorescence intensity
T3 construct: Native CD33 on primary human monocytes from PBMC; also called cell surface CD33; SIGLEC-3
T3 sequence (P20138 18-364 limits assumed): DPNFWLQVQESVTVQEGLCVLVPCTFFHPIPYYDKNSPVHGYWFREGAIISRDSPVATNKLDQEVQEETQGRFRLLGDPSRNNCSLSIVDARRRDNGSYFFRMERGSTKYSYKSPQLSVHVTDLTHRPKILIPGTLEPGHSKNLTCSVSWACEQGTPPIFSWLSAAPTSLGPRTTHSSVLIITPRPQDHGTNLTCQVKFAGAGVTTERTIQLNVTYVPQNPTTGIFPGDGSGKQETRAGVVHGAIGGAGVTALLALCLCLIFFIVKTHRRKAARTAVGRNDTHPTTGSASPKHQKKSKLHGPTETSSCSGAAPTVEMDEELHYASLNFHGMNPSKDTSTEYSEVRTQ
Protocol: Freshly isolated cells PBMCs were resuspended at 2×10⁶ cells/mL and allowed to rest for 15 minutes at room temperature, then plated at 100 μL/well into a round bottom 96-well plate (COSTAR®) and washed with FACS buffer (PBS containing 2% fetal bovine serum from Corning®). […] Data analysis was performed using FlowJo software and statistical analysis was performed using GraphPad Prism 9.

[4] = target: T1, human CD33 ECD 18-232-His; assay: SPR, Biacore 8K, conjugate captured on Protein A chip, CD33 ECD-His as analyte, 37 C, 1:1 model
Protocol: as §1

[5] = target: T2, cynomolgus monkey CD33 ECD 18-232-His; assay: as above
Protocol: as §1

Row | Binder | Kd [1] [nM] | koff [1] [s⁻¹] | kon [1] [M⁻¹ s⁻¹] | Kd [2] [nM] | koff [2] [s⁻¹] | kon [2] [M⁻¹ s⁻¹] | EC50 (read off the curve) [3] [ng/mL] | Kd [4] [nM] | koff [4] [s⁻¹] | kon [4] [M⁻¹ s⁻¹] | Kd [5] [nM] | koff [5] [s⁻¹] | kon [5] [M⁻¹ s⁻¹]
1 | B1 | 1.14 | 0.000516 | 454000 | 4.28 | 0.00279 | 653000 |  |  |  |  |  |  | 
2 | B2 | 3.4 | 0.00118 | 346000 |  |  |  |  |  |  |  |  |  | 
3 | B3 | 0.854 | 0.000486 | 570000 | 0.812 | 0.00108 | 1.34e+06 | ~5 |  |  |  |  |  | 
4 | B4 |  |  |  |  |  |  |  | 1.47 | 0.000645 | 439000 | 4.65 | 0.00478 | 1.03e+06
